2 molecules from doi:10.1101/2024.09.19.613683 (bioRxiv, 2024) can be followed below.

To fix the notation:
B1: tail sheath protein of phage 812 (natural protein, Staphylococcus phage 812)
chain: MAVEPFPRRPITRPHASIEVDTSGIGGSAGSSEKVFCLIGQAEGGEPNTVYELRNYSQAKRLFRSGELLDAIELAWGSNPNYTAGRILAMRIEDAKPASAEIGGLKITSKIYGNVANNIQVGLEKNTLSDSLRLRVIFQDDRFNEVYDNIGNIFTIKYKGEEANATFSVEHDEETQKASRLVLKVGDQEVKSYDLTGGAYDYTNAIITDINQLPDFEAKLSPFGDKNLESSKLDKIENANIKDKAVYVKAVFGDLEKQTAYNGIVSFEQLNAEGEVPSNVEVEAGEESATVTATSPIKTIEPFELTKLKGGTNGEPPATWADKLDKFAHEGGYYIVPLSSKQSVHAEVASFVKERSDAGEPMRAIVGGGFNESKEQLFGRQASLSNPRVSLVANSGTFVMDDGRKNHVPAYMVAVALGGLASGLEIGESITFKPLRVSSLDQIYESIDLDELNENGIISIEFVRNRTNTFFRIVDDVTTFNDKSDPVKAEMAVGEANDFLVSELKVQLEDQFIGTRTINTSASIIKDFIQSYLGRKKRDNEIQDFPAEDVQVIVEGNEARISMTVYPIRSFKKISVSLVYKQQTLQA
B2: tail tube protein of phage 812 (natural protein, Staphylococcus phage 812)
chain: MASEAKQTVHTGNTVLLMIKGKPVGRAQSASGQREYGTTGVYEIGSIMPQEHVYLRYEGTITVERLRMKKENFADLGYASLGEEILKKDIIDILVVDNLTKQVIISYHGCSANNYNETWQTNEIVTEEIEFSYLTASDKART

The series “cryo-EM structure” concerns the molecule itself. The series can be described thus: cryo-EM structure.
Series [1] concerns the target B1. The series can be described thus: cryo-EM structure.

For the molecule B1, in the series “cryo-EM structure”, the binding result is on record as “binds”. On to B2, for which the binding result in series [1] is on record as “binds”.
